Target: adenosine A2A receptor (Homo sapiens, UniProt P29274)
Experiment: LANCE allosteric cAMP assay: titrated IgG, then fixed NECA concentration
Assay type: cell-based
Settings: Table 12
Description: A2A-1 and A2A-9 were assayed for allosteric modulation.
A2A-9 was assayed as described in Example 16.

Chain of adenosine A2A receptor (P29274 whole entry): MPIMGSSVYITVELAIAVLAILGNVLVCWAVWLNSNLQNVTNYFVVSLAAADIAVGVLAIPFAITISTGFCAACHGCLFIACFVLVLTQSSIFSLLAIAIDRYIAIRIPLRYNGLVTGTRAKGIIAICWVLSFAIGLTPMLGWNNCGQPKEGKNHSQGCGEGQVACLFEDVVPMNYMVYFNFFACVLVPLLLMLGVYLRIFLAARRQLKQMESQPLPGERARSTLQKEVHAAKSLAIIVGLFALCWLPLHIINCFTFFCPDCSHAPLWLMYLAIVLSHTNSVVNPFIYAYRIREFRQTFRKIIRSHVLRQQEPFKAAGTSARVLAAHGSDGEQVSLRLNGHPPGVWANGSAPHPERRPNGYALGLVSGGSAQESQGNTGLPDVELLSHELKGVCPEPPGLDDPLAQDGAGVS

B1: A2A-9: A2AR variant immunoglobulin, CDRH1-3 SEQ ID NOs 14/103/192 (antibody, V domains shown)
VH: EVQLQQSGPGLVKPSQSLSLTCSVTGYSITSGYYWNWIRQFPGKKLEWMGYIRYDGSNNYNPSLKNRISITRDTSKNQFFLKLNSVTTDDTATYYCARVHHYYGSSYFDYWGQGTTLTVSS
VL: DIVMTQSQKFMSTSVGDRVSATCKASQNVGSSVAWFQQKPGQSPKALIYSTSYRYSGVPDRFTGSGSGTDFTLTISNVQSEDLAEYFCQQYNSYPLTFGAGTKLEIK
  Functional classification, Example 18: antagonist
